Assays:
SARS-CoV RBD protein = SARS-CoV RBD protein (SARS-CoV, UniProt P59594); assay: cell-based or functional assay
RaTG13 RBD protein = RaTG13 RBD protein (Bat coronavirus RaTG13, UniProt A0ABF7PLN6); assay: ELISA; details: both partners purified

B1: GW01 (antibody, V domains shown)
VH: EVQLVESGGGVVQPGGSLRLSCAASGFRFDDHAMHWVRQAPGKGLEWVSVISGDGGSTYYADSVKGRFSISRDDSKNSLYLQMNSLRTEDTALYYCAKDRSYGPPDVFNYEYGMDVWGQGTTVTVSS
VL: not shown
notes: also called mAb GW01; antibody GW01
IC50 of neutralisation of pseudotyped SARS-CoV on Huh-7 cells (SARS-CoV RBD protein): 0.0193 µg/mL
binding result (RaTG13 RBD protein): binds

From publication PMC9021188 (Cell Discovery, 2022)
